Broadly, the Kd is a measure of binding affinity in units of concentration.

Consider one molecule from publication PMC7179994 (2019).

In the assay the target is VLDL receptor (Homo sapiens, UniProt P98155). In words: SPR. For orientation: In SPR one partner is held on a chip, and binding of the other changes the refractive index at the surface.

B1: NDSK-II fragment of fibrin NDSK-II (central region) (protein)
chain 1: ADSGEGDFLAEGGGVRGPRVVERHQSACKDSDWPFCSDEDWNYKCPSGCRMKGLIDEVNQDFTNRINKLKNSLFEYQKNNKDSHSLTTNIMEILRGDFSSANNRDNTYNRVSEDLRSRIEVLKRKVIEKVQHIQLLQKNVRAQLVDMKRLEVDIDIKIRSCRGSCSRALAREVDLKDYEDQQKQLEQVIAKDLLPSRDRQHLPLIKMKPVPDLVPGNFKSQLQKVPPEWKALTDMPQMRMELERPGGNEITRGGSTSYGTGSETESPRNPSSAGSWNSGSSGPGSTGNRNPGSSGTGGTATWKPGSSGPGSTGSWNSGSSGTGSTGNQNPGSPRPGSTGTWNPGSSERGSAGHWTSESSVSGSTGQWHSESGSFRPDSPGSGNARPNNPDWGTFEEVSGNVSPGTRREYHTEKLVTSKGDKELRTGKEKVTSGSTTTTRRSCSKTVTKTVIGPDGHKEVTKEVVTSEDGSDCPEAMDLGTLSGIGTLDGFRHRHPDEAAFFDTASTGKTFPGFFSPMLGEFVSETESRGSESGIFTNTKESSSHHPGIAEFPSRGKSSSYSKQFTSSTSYNRGDSTFESKSYKMADEAGSEADHEGTHSTKRGHAKSRPVRDCDDVLQTHPSGTQSGIFNIKLPGSSKIFSVYCDQETSLGGWLLIQQRMDGSLNFNRTWQDYKRGFGSLNDEGEGEFWLGNDYLHLLTQRGSVLRVELEDWAGNEAYAEYHFRVGSEAEGYALQVSSYEGTAGDALIEGSVEEGAEYTSHNNMQFSTFDRDADQWEENCAEVYGGGWWYNNCQAANLNGIYYPGGSYDPRNNSPYEIENGVVWVSFRGADYSLRAVRMKIRPLVTQ
chain 2: QGVNDNEEGFFSARGHRPLDKKREEAPSLRPAPPPISGGGYRARPAKAAATQKKVERKAPDAGGCLHADPDLGVLCPTGCQLQEALLQQERPIRNSVDELNNNVEAVSQTSSSSFQYMYLLKDLWQKRQKQVKDNENVVNEYSSELEKHQLYIDETVNSNIPTNLRVLRSILENLRSKIQKLESDVSAQMEYCRTPCTVSCNIPVVSGKECEEIIRKGGETSEMYLIQPDSSVKPYRVYCDMNTENGGWTVIQNRQDGSVDFGRKWDPYKQGFGNVATNTDGKNYCGLPGEYWLGNDKISQLTRMGPTELLIEMEDWKGDKVKAHYGGFTVQNEANKYQISVNKYRGTAGNALMDGASQLMGENRTMTIHNGMFFSTYDRDNDGWLTSDPRKQCSKEDGGGWWYNRCHAANPNGRYYWGGQYTWDMAKHGTDDGVVWMNWKGSWYSMRKMSMKIRPFFPQQ
chain 3: YVATRDNCCILDERFGSYCPTTCGIADFLSTYQTKVDKDLQSLEDILHQVENKTSEVKQLIKAIQLTYNPDESSKPNMIDAATLKSRKMLEEIMKYEASILTHDSSIRYLQEIYNSNNQKIVNLKEKVAQLEAQCQEPCKDTVQIHDITGKDCQDIANKGAKQSGLYFIKPLKANQQFLVYCEIDGSGNGWTVFQKRLDGSVDFKKNWIQYKEGFGHLSPTGTTEFWLGNEKIHLISTQSAIPYALRVELEDWNGRTSTADYAMFKVGPEADKYRLTYAYFAGGDAGDAFDGFDFGDDPSDKFFTSHNGMQFSTWDNDNDKFEGNCAEQDGSGWWMNKCHAGHLNGVYYQGGTYSKASTPNGYDNGIIWATWKTRWYSMKKTTMKIIPFNRLTIGEGQQHHLGGAKQVRPEHPAETEYDSLYPEDDL
Regarding B1, the affinity, expressed as Kd, was 9.6 nM.
